We go through ten molecules from article PMC4848090, “Mechanistic insight into a peptide hormone signaling complex mediating floral organ abscission” (eLife, 2016).

First the molecules themselves.
T1: Arabidopsis thaliana HAESA ectodomain (residues 20–620) (Arabidopsis thaliana, UniProt P47735 20-620, N-glycans (glycoprotein of ~75 kDa))
T1 construct: HAESA, leucine-rich repeat receptor kinase, Arabidopsis thaliana, ectodomain residues 20–620; Synthetic gene, codon optimized; the vector provides an azurocidin signal peptide for secretion; also called HAESA LRR domain; HAESA LRR ectodomain; not shown: Strep, C-terminal, cleaved; 9xHis, C-terminal, cleaved
T1 sequence (looked up): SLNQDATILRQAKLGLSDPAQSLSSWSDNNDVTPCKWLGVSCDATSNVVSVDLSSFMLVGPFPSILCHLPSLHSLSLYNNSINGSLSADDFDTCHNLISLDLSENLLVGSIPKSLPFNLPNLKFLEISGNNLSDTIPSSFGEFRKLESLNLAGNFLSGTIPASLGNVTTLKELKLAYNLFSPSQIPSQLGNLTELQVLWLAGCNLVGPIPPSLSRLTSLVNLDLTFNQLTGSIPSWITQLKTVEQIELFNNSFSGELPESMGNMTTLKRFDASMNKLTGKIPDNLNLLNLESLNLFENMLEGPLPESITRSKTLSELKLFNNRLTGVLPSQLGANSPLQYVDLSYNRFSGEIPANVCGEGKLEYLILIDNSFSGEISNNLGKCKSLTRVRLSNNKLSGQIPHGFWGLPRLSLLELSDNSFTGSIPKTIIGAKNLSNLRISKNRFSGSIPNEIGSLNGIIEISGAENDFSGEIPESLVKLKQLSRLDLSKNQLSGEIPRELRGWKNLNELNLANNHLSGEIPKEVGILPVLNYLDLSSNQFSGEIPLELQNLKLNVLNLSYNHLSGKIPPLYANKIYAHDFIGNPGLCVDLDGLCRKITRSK

T2: 1:1 HAESA – SERK1 ectodomain mixture (Arabidopsis thaliana, UniProt P47735 20-620; Q94AG2 24-213, Asn115→Asp | Asn163→Gln, N-glycans)
T2 sequence 1: T1 sequence (looked up)
T2 sequence 2: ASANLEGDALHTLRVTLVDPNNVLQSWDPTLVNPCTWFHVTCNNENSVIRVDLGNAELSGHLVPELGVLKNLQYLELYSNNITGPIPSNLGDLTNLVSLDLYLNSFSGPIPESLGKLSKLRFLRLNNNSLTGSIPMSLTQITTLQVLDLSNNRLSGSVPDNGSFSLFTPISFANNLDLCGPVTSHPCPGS

T3: 1:1 HAESA – SERK1 ectodomain mixture (Arabidopsis thaliana, UniProt P47735 20-620; Q94AG2 24-213, Asn115→Asp | Asn163→Gln, N-glycans)
T3 construct: HAESA, Arabidopsis thaliana, ectodomain residues 20–620; SERK1, Arabidopsis thaliana, ectodomain residues 24–213; they are the content of the ITC cell into which the peptides were titrated; also called HAESA/SERK1 protein solution; HAESA - SERK1 mixture; source: Trichoplusia ni Tnao38 cells (baculovirus), each ectodomain expressed and purified separately, then mixed 1:1; not …
T3 sequence (looked up) 1: T1 sequence (looked up)
T3 sequence (looked up) 2: T2 sequence 2

T4: Arabidopsis thaliana SERK1 ectodomain (residues 24–213, Asn115→Asp and Asn163→Gln) (Arabidopsis thaliana, UniProt Q94AG2 24-213, Asn115→Asp | Asn163→Gln)
T4 sequence: T2 sequence 2

B1: synthetic IDL1 peptide LVPPSG-Hyp-SMRHN (crystal soak) (peptide)
peptide: LVPPSG[Hyp]SMRHN
notes: IDA-LIKE 1 (IDL1), Arabidopsis thaliana; Hyp written as P; source: synthetic peptide
B2: synthetic IDA peptide YVPIPPSA-Hyp-SKRHN (peptide)
peptide: YVPIPPSA[Hyp]SKRHN
notes: N-terminal Tyr residue added to allow for peptide quantification by UV absorbance; INFLORESCENCE DEFICIENT IN ABSCISSION (IDA), Arabidopsis thaliana; Hyp written as P; Used in ITC and for the HAESA-IDA-SERK1 complex that was crystallised; also called wild-type IDA; IDA wild-type; source: synthetic peptide
B3: synthetic Lys66/Arg67 → Ala mutant IDA peptide (peptide)
peptide: YVPIPPSA[Hyp]SAAHN
notes: INFLORESCENCE DEFICIENT IN ABSCISSION (IDA), Arabidopsis thaliana; as the IDA stretch of m3 with the two changes; also called IDA K66A/R67A; IDA K66A/R66A; source: synthetic peptide
B4: synthetic PKGV-IDA peptide YPKGVPIPPSA-Hyp-SKRHN (peptide)
peptide: YPKGVPIPPSA[Hyp]SKRHN
notes: N-terminal Tyr; INFLORESCENCE DEFICIENT IN ABSCISSION (IDA), Arabidopsis thaliana; Hyp written as P; also called N-terminally extended IDA peptide; source: synthetic peptide
B5: synthetic IDL1 peptide YLVPPSG-Hyp-SMRHN (ITC) (peptide)
peptide: YLVPPSG[Hyp]SMRHN
B6: Arabidopsis thaliana HAESA ectodomain (residues 20–620) (domain or fragment)
chain: T1 sequence (looked up)
modifications: N-glycans (glycoprotein of ~75 kDa)
B7: synthetic IDA peptide PIPPSA-Hyp-SKRHN (crystal soak) (peptide)
peptide: PIPPSA[Hyp]SKRHN
notes: INFLORESCENCE DEFICIENT IN ABSCISSION (IDA), Arabidopsis thaliana, residues 58-69; Hyp written as P; also called dodecamer peptide; source: synthetic peptide

Non-standard residues stand in square brackets, D forms with d. No end group written: not given here. Hyp = O=C(O)[C@@H]1C[C@@H](O)CN1

For assay [1], the system named is HAESA and SERK1 ectodomains. In words: Analytical size-exclusion chromatography of HAESA – SERK1 ectodomain complex formation with peptide. The format is binding, Arabidopsis thaliana. Particulars: Superdex 200 HR 10/30, 20 mM citric acid pH 5, 100 mM NaCl; peptide 25 μM; HAESA and SERK1 1:1 molar ratio; UV 280 nm. Here is the method:
Gel filtration experiments were performed using a Superdex 200 HR 10/30 column (GE Healthcare) pre-equilibrated in 20 mM citric acid (pH 5) and 100 mM NaCl. 100 μL of the isolated HAESA ectodomain (5.5 mg/mL), of the purified SERK1 LRR domain (3 mg/mL) or of mixtures of HAESA and SERK1 (either in the presence or absence of synthetic wild-type IDA, wild-type IDL1 or mutant IDA peptides at a concentration of 25 μM; 10 mg/mL; samples contained HAESA and SERK1 in 1:1 molar ratio) were loaded sequentially onto the column and elution at 0.5 mL/min was monitored by ultraviolet absorbance at 280 nm.
On the technique in general: Size exclusion chromatography separates by hydrodynamic size, large species first.

Assay [2] concerns the target T5, HAESA ectodomain (residues 20–620) (Arabidopsis thaliana, UniProt P47735).
T5 construct: We purified the HAESA ectodomain (residues 20–620) from baculovirus-infected insect cells; azurocidin signal peptide (N); made in house; host or cells: Trichoplusia ni Tnao38 insect cells (baculovirus, secreted)
The experiment in a line: Isothermal titration calorimetry of synthetic IDA-family peptides vs. the isolated HAESA ectodomain. The class given is binding. The text has this:
Synthetic genes coding for the Arabidopsis thaliana HAESA (residues 20–620) and SERK1 ectodomains (residues 24–213, carrying Asn115→Asp and Asn163→Gln mutations), codon optimized for expression in Trichoplusia ni (Geneart, Germany), were cloned into a modified pBAC-6 transfer vector (Novagen, Billerica, MA), providing an azurocidin signal peptide and a C-terminal TEV (tobacco etch virus protease) cleavable Strep-9xHis tandem affinity tag. Recombinant baculoviruses were generated by co-transfecting transfer vectors with linearised baculovirus DNA (ProFold-ER1, AB vector, San Diego, CA) followed by viral amplification in Spodoptera frugiperda Sf9 cells. […] The purified HAESA ectodomain was incubated with a synthetic IDA peptide (YVPIPPSA-Hyp-SKRHN, the N-terminal Tyr residue was added to allow for peptide quantification by UV absorbance) and the SERK1 ectodomain in 1:1:1.5 molar ratio. […]
ITC experiments were performed using a Nano ITC (TA Instruments, New Castle, DE) with a 1.0 mL standard cell and a 250 μL titration syringe. […] Molar protein concentrations for SERK1 and HAESA were calculated using their molar extinction coefficient and a molecular weight of 27,551 and 74,896 Da, respectively (determined by MALDI-TOF mass spectrometry). […] Data were analyzed using the NanoAnalyze program (version 2.3.6) as provided by the manufacturer.
(ITC needs no label: the signal is the heat of the interaction.)

The target in assay [3] is T1, Arabidopsis thaliana HAESA ectodomain …. The experiment in a line: crystal structure; apo HAESA ectodomain crystals soaked in crystallization buffer with 15 mM synthetic peptide. The conditions noted are these: both partners purified.
For assay [4], the target named is T2, 1:1 HAESA – SERK1 ectodomain mixture. The experiment in a line: ITC; HAESA - SERK1 mixture in cell.
Assay [5] deals with T3, 1:1 HAESA – SERK1 ectodomain mixture. In words: ITC; 150 μM wild-type or mutant IDA peptide in the syringe, 10 μM of a 1:1 HAESA – SERK1 protein mixture in the cell; 25°C; 20 mM citric acid pH 5.0, 100 mM NaCl. The conditions noted are these: both partners purified.
For assay [6], the target named is B6. The experiment in a line: ITC.
The target of assay [7] is T4, Arabidopsis thaliana SERK1 ectodomain …. The experiment in a line: ITC; in presence of IDA.

As to “IDA Hyp64P: IDA mutant peptide with Hyp64 replaced with proline (YVPIPPSAPSKRHN)”, in assay [1], the “HAESA – SERK1 complex formation in size exclusion chromatography” value is listed as “no complex formation”. As to “YPIPPSA[Hyp]SKRHNSFVN [IDA-SFVN, C-terminally extended IDA peptide]”, the “binding to the HAESA ectodomain, in words” value in assay [2] (ITC) is on record as “cannot bind”.

`CC[C@H](C)[C@H](NC(=O)[C@@H]1CCCN1C(=O)[C@@H](NC(=O)[C@@H](N)Cc1ccc(O)cc1)C(C)C)C(=O)N1CCC[C@H]1C(=O)N1CCC[C@H]1C(=O)N[C@@H](CO)C(=O)N[C@@H](C)C(=O)N1C[C@H](O)C[C@H]1C(=O)N[C@@H](CO)C(=O)N[C@@H](CCCCN)C(=O)N[C@@H](CCCNC(=N)N)C(=O)N[C@@H](Cc1c[nH]cn1)C(=O)N[C@@H](CC(N)=O)C(=O)O` [IDA]: the Kd – broadly, a measure of binding affinity in units of concentration – in assay [2] was found to be 20 ± 0.9 µM.

With B1, in assay [3], the binding result is on record as “binds”. In the case of B2, the Kd in assay [4] came to 0.35 µM. For the same molecule, the “fold higher binding affinity than for HAESA alone” value in assay [5] was around 60 fold. As to B3, the “fold reduced binding affinity against wild-type IDA” value in assay [5] was 10 fold. B4 displayed a Kd in assay [6] of 25 µM. Moreover, the binding result in assay [3] is on record as “binds”.

With B5, in assay [6], the Kd is 135 µM. Consider B6, for which the Kd in assay [7] stood at 0.075 µM. As for B7, in assay [3], the binding result was “binds”.
